Assay results from article PMC12394075.

Molecular target: HA-GSGS-tagged rat mGluR2 with TAG at Ala548 (CRD linker sensor) (rat) (UniProt P31421)

Chain of Heterotrimeric Gi1 (P63096 whole entry, looked up, one chain of several): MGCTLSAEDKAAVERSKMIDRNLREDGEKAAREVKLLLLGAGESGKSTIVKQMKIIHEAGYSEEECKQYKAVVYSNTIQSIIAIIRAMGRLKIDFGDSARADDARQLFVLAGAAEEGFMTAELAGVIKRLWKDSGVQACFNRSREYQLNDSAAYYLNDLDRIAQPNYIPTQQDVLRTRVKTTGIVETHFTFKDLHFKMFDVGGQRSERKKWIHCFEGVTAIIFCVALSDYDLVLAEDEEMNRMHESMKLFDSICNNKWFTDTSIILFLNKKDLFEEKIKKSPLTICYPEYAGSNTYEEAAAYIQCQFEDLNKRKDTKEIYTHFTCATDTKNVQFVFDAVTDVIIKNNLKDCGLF

smFRET of the CRD sensor with 10 mM glutamate and 4–5 µM Gi1 heterotrimer: occupancy of the high-FRET state (E ~ 0.85): 20%
Substance: Heterotrimeric Gi1 (from UniProt P63096 1-354) (complex)
